Experimental data as given in patent US20220396632A1 (VERSEAU THERAPEUTICS, published 2022).
Non-standard residues stand in square brackets, D forms with d. No end group written: not given here. *: point of attachment. Biotin = O=C1N[C@H]2[C@H](CS[C@H]2CCCCC(=O)*)N1; sY = N[C@@H](Cc1ccc(OS(=O)(=O)O)cc1)C(=O)O

T1: Scrambled Y42,52,63(SO3) PSGL-1(42-62) biotin peptide (sulfotyrosine at peptide positions 1, 11 and 22; C-terminal Lys-biotin)
T1 peptide: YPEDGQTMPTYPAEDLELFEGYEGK

T2: Biotin PSGL-1(42-62) peptide, unmodified (human, C-terminal Lys-biotin)
T2 construct: Residues 42-62 followed by GGGK-biotin; also called WT; wild-type
T2 peptide: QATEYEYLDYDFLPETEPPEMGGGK

T3: Biotin Y46,48,51(SO3) PSGL-1(42-62) peptide (human, sulfotyrosine at Y46, Y48 and Y51; C-terminal Lys-biotin)
T3 construct: also called fully sulfated N-terminal PSGL-1 peptide
T3 peptide: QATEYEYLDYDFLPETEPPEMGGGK

T4: SulfoTyr C4 peptide (not fully specified; Y4, Y7 and Y9 sulfated (SO3); C-terminal biotin)
T4 construct: also called C4 alpha chain peptide; human sulfotyrosinylated C4 peptide
T4 peptide: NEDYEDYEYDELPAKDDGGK

T5: Sulfotyrosine CCR2b biotin peptide (human)
T5 construct: also called CCR2b peptide
T5 peptide: TTFFD[sY]D[sY]GAPSHGGK(Biotin)

T6: Human fibrinogen protein (ThermoFisher, RP-43142) (human, UniProt P02671 20-629; P02675 31-491; P02679 27-453, limits assumed, natural sulfotyrosines)
T6 construct: mature; Native dimer with 3 pairs of non-identical chains; also called gamma-fibrinogen; γ fibrinogen protein
T6 sequence (looked up) 1: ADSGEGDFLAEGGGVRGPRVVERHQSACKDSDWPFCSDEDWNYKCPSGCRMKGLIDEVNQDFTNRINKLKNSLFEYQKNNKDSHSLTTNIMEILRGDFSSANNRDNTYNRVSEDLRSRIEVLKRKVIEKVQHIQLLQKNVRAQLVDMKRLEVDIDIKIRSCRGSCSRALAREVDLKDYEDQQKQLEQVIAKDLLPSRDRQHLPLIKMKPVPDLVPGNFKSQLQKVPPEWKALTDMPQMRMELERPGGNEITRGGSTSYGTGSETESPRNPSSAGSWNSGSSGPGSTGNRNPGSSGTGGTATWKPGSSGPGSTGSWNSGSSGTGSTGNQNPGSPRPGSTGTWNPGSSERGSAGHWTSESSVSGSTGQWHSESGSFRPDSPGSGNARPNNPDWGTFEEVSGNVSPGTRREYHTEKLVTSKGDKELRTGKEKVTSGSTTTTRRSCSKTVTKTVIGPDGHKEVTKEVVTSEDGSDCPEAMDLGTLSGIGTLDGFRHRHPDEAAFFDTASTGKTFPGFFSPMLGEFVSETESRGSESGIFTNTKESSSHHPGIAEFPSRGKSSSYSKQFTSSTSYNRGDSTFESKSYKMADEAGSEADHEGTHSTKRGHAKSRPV
T6 sequence (looked up) 2: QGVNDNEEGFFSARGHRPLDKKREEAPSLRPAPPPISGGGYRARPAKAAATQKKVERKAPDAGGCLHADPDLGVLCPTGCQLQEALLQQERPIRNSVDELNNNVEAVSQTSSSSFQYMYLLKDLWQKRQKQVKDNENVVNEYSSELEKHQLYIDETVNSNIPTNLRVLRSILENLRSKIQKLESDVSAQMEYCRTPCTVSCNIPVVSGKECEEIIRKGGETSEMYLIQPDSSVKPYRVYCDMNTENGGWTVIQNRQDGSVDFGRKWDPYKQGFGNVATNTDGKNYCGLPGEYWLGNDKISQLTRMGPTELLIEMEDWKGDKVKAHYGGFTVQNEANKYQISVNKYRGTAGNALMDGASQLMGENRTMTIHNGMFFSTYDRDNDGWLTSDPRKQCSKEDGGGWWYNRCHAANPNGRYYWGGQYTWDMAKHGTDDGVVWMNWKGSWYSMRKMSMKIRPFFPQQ
T6 sequence (looked up) 3: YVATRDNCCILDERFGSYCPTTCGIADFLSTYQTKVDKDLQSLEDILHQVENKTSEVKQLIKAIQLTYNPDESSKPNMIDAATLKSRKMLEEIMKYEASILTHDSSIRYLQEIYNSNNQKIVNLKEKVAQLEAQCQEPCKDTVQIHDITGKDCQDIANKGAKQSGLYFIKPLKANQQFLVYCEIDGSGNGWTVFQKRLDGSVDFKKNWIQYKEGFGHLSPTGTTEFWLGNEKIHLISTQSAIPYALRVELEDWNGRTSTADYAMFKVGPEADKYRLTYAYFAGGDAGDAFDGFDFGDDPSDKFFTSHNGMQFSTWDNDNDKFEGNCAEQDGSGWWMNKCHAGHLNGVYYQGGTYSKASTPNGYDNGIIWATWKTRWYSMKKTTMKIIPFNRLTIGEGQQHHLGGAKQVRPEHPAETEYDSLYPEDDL

T7: Sulfotyr fibrinogen γ peptide (not fully specified; Y8 and Y12 sulfated (SO3); C-terminal biotin)
T7 construct: also called Fibrinogen gamma peptide; human sulfotyrosinylated fibrinogen peptide
T7 peptide: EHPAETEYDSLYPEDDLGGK

T8: SulfoCCK biotin peptide (human)
T8 construct: also called sulfotyrosine CCK peptide
T8 peptide: SHRISDRD[sY]MGWMDFGGK(Biotin)

T9: Recombinant human PSGL-1(ECD)-hFc1 (R&D Systems, Cat. 3345-PS) (human, UniProt Q14242 42-305)
T9 construct: Bought; Gln42-Val295 counted on AAC50061; also called PSGL-1-Fc; PSGL-1-hFc1 chimera; not shown: human IgG1 Fc, Pro100-Lys330
T9 sequence: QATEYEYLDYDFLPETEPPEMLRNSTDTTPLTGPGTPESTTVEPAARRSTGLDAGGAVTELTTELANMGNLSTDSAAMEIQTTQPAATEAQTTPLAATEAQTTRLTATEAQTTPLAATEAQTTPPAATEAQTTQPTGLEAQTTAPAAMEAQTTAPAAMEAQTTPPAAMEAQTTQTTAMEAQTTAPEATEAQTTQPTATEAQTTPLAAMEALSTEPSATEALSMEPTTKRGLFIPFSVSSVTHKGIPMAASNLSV

T10: Sulfotyrosine D6 biotin peptide (human)
T10 construct: also called D6 peptide
T10 peptide: ENSSFY[sY][sY]D[sY]LDEVAFGGK(Biotin)


How the values were obtained:
[1] = target: T1, Scrambled Y42,52,63(SO3) PSGL-1(42-62) …; assay: ELISA, immobilized biotin peptide
Method: (§1) A typical ELISA was performed by coating high binding half-well plates (Corning Cat. #3690) with 3 ug/mL/25 ul per well of biotinylated N-terminal PSGL-1 peptides, which incorporated residues 42 to 62 of the protein, in PBS, pH 7.4, overnight at 4° C. The peptide was unmodified or contained sulfated tyrosine at all 3 tyrosine positions (46, 48, and 51) or at one position (tyr51) (Table 7).
(§2) PSGL-1 protein or peptide served as a positive control. […] […] […] For each antibody, duplicate values were averaged and average assay background was subtracted.

[2] = target: T2, Biotin PSGL-1(42-62) peptide, unmodified; assay: ELISA, immobilized biotin peptide
Method: as §1, §2

[3] = target: T3, Biotin Y46,48,51(SO3) PSGL-1(42-62) …; assay: ELISA, immobilized biotin peptide
Method: as §1, §2

[4] = target: T4, SulfoTyr C4 peptide; assay: ELISA, 50 nM mAb
Method: (§3) Recombinant PSGL-1-hFc1 chimera protein consisting of PSGL-1's extracellular domain (ECD) served as a positive control. […] Primary antibody was added (25 ul per well) in duplicate at 50 nM in assay buffer (blocking buffer containing 0.05% Tween®20) into test and control (just blocked) wells and the plate incubated for 45 min at 37° C.

[5] = target: T11, Human complement C4 protein (Millipore Sigma, Cat. 204886) (human, UniProt P0C0L4 20-675; P0C0L4 680-1446; P0C0L4 1454-1744, limits assumed, natural sulfotyrosines); assay: ELISA, 50 nM mAb
T11 construct: mature
T11 sequence (P0C0L4 20-675 limits assumed, form in doubt, chain 1 of 3): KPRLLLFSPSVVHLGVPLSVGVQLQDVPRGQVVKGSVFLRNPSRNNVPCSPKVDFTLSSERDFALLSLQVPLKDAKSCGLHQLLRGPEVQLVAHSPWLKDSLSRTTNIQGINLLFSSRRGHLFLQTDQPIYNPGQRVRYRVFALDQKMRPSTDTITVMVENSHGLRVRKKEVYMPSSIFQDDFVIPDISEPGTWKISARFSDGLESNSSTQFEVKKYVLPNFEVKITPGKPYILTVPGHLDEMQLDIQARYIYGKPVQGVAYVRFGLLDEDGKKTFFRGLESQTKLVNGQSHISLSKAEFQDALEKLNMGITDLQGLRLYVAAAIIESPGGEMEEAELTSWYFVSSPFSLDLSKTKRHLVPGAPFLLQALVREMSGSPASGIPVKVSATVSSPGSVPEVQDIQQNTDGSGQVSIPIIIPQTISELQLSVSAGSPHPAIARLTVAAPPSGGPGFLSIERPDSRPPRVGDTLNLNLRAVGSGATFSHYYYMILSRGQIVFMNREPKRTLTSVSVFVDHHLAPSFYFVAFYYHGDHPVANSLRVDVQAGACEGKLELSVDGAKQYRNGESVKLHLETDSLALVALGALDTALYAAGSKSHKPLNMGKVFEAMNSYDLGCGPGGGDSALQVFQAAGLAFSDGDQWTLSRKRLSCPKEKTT
T11 sequence (P0C0L4 680-1446 limits assumed, form in doubt, chain 2 of 3): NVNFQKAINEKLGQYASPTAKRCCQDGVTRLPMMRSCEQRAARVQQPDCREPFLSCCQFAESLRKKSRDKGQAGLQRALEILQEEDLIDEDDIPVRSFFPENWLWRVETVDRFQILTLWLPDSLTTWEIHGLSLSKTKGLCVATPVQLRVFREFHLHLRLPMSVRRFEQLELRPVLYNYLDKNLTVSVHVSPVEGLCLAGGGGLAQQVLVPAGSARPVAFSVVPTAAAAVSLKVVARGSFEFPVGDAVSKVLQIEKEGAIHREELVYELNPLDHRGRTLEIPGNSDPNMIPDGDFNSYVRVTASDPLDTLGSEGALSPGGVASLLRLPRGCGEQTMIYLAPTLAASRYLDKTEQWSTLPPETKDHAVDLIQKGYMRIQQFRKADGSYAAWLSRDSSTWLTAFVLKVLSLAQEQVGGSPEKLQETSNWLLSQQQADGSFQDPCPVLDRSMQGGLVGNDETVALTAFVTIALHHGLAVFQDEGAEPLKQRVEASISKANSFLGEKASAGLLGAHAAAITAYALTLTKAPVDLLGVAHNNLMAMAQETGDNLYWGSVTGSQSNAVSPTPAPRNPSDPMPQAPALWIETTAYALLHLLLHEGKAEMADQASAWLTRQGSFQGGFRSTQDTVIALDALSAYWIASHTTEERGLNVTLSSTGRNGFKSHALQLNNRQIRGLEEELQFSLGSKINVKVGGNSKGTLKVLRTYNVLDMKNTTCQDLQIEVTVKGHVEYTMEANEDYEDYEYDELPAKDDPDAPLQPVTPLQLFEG
T11 sequence (P0C0L4 1454-1744 limits assumed, form in doubt, chain 3 of 3): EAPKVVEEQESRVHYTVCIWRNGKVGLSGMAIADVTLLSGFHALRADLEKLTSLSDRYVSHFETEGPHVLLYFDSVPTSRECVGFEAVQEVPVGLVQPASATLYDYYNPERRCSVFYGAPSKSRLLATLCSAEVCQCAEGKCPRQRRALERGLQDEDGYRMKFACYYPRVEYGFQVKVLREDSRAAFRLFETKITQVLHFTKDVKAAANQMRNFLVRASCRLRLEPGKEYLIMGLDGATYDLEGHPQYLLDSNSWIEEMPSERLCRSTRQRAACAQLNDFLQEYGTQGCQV
Method: as §3

[6] = target: T5, Sulfotyrosine CCR2b biotin peptide; assay: ELISA, 50 nM mAb
Method: as §3

[7] = target: T6, Human fibrinogen protein (ThermoFisher, …); assay: ELISA, 50 nM mAb
Method: as §3

[8] = target: T7, Sulfotyr fibrinogen γ peptide; assay: ELISA, 50 nM mAb
Method: as §3

[9] = target: T8, SulfoCCK biotin peptide; assay: ELISA, 50 nM mAb
Method: as §3

[10] = target: T9, Recombinant human PSGL-1(ECD)-hFc1 (R&D …); assay: ELISA, 50 nM mAb
Method: as §3

[11] = target: T10, Sulfotyrosine D6 biotin peptide; assay: ELISA, 50 nM mAb
Method: as §3

Binder	A450nm, 20 nM mAb [1] [A450nm]	binding result [1]	EC50 [2] [nM]	A450nm, 20 nM mAb [3] [A450nm]	EC50 [3] [nM]	binding normalized to PSGL-1 [4]	binding normalized to PSGL-1 [5]	binding normalized to PSGL-1 [6]	binding result [6]	binding normalized to PSGL-1 [7]	binding result [7]	binding normalized to PSGL-1 [8]	binding normalized to PSGL-1 [9]	A450nm [10] [A450nm]	binding normalized to PSGL-1 [11]	A450nm, 20 nM mAb [2] [A450nm]
07G01 (antibody, V domains shown) VH: EVKLLESGGGLVRPGGSLRLSCAASGFTLSNYAMSWVRQAPGKGLEWVSAISGVGITTYYADSVKGRFIISRDNSKNTVYLQMNSLRAEDTAVYYCAKSRGGGAFDYWGQGTLVTVSS VL: not shown		no binding (tested: 20 nM)	> 500	2.58	3.7	1.41	1.38	1.63		0.13		1.44	1.66	1.69		
08C07 (antibody, IgG4, V domains shown) VH: QMQLVQSGAEVKKPGSSVKVSCKASGGTFSNYGMIWVRQAPRQGLEWMGRIIPFLDKPDYSEKFQDRITFTADKSTSTVYMELRGLRSDDTAVYYCAKWTSTLQGITTGQTWGQGTLVTVSS VL: QPVLTQPPSASGTPGQRVTISCSGSSSNIGGSYMYWYQQFPGTAPKLLIYRNNQRPSGVPDRFSGSKSGTSASLAISGLRSEDEADYYCAAWDVSLSGWVFGGGTKLTVL		no binding (tested: 20 nM)		2.6		0.89	0.6	0.79		0.03		0.49	0.66	1.78	1.2	

Second part, the binder after the results:

A450nm, 20 nM mAb [1] [A450nm]	binding result [1]	EC50 [2] [nM]	A450nm, 20 nM mAb [3] [A450nm]	EC50 [3] [nM]	binding normalized to PSGL-1 [4]	binding normalized to PSGL-1 [5]	binding normalized to PSGL-1 [6]	binding result [6]	binding normalized to PSGL-1 [7]	binding result [7]	binding normalized to PSGL-1 [8]	binding normalized to PSGL-1 [9]	A450nm [10] [A450nm]	binding normalized to PSGL-1 [11]	A450nm, 20 nM mAb [2] [A450nm]	Binder
0.01	no binding (tested: 20 nM)	5.1	2.5	1.7	0.41	0.56	0.01	no binding (tested: 50 nM)	-0.07	no binding (tested: 50 nM)	0.57	0.13	1.7	0.42		03B04 (antibody, IgG4, V domains shown) VH: EVKLLESGGGLVKPGGSLRLSCAASGFAFSRYTMNWVRQAPGKGLEWVSSISSSSSYIYYADSVKGRFTISRDNAKNSLVLQMNSLRPEDTAVYYCARGGIAANDYWGQGTLVTVSS VL: EIVMTQTPLSLPVTLGQPASISCRSSRNLVHYDGNTYLSWFHQRPGQPPRRLIYKISNRESGVPDRFSGSGSGTDFTLKISRVEAEDVGVYYCLQHTHWPWTFGPGTKVEIK
0.03	no binding (tested: 20 nM)		2.5		0.94	0.87	0.56		-0.18	no binding (tested: 50 nM)	1.13	0.5		1.48	2.07	02E01 (antibody, IgG4, V domains shown) VH: EVQLVQSGGGVVQPGRSLRLSCAASGFTFSRYGMHWVRQAPGKGLEWVSVISYDGNNKYYADSVKGRFTISRDNSKNTVYLQMNSLRADDTAVYYCARNVPVTNFGYWGQGTLVTVSS VL: QSALTQPASVSGSPGQSITISCTGTSSDVGGYNYVSWYQQHPGKAPKLMIYDVSKRPSGVSNRFSGSKSGNTASLTISGLQAEDEADYYCSSYTRPGRVFGGGTKLTVL
0.12		> 500	2.6	0.17	1.28	1.24	1.19		0.2		1.34	1.21	1.8			02E06 (antibody, IgG4, V domains shown) VH: QVQLVQSGAEVKKPGASVKVSCKASGYSFTDYYMHWVRQAPGQGLEWMGWMNPNSGNTGYAQTFQGRVTMTRNTSISTAYMELSSLRSEDTAVYYCARGRRVRGTPTFEYWGQGTLVTVSS VL: QSVVTQPPSASGTPGQRVTISCSGRSSNIGSYTVNWFQHLPGTGPKLLIYGNNQRPSGVPGRFSGSKSGTSASLAISGLQSNDEATYYCAAWDDSLNGHYVFGTGTKVTVL
